# Test results reported in US20240010721A1 (HARBOUR BIOMED SHANGHAI, published 2024).
# Residue numbers refer to the chain shown, from its start.
# B1: PR001356 (antibody, human IgG1, kappa, V domains shown)
# VH: QVQLVESGGGVVQPGRSLRLSCAASGFTFSSYGMHWVRQAPGKGLEWVAVAWYDGVSEDYADSVKGRFTISRDNAKNTLYLQMNSLRAEDTAVYYCAREQARSFDLWGRGTLVTVSS
# VL: DIVMTQSPSTLSASVGDRVTITCRASQSINNWLAWYQQKPGKAPKLLIYKASSLESGVPSRFSGSGSGTEFTLTISSLQPDDFATYYCQQYKSYSPMYTFGQGTKVEIKR
# notes: fully human IgG1, kappa; also called anti-ROR1 1015M2-E6 hIgG1; PR001356(WT)
# B2: PR001370 (antibody, V domains shown)
# VH: B1 VH with Q1E, V5L, A51K, V56I, E58Q, D59N, Y60F, A75S, E99D, Q100L
# VL: B1 VL with K92N, E107D
# notes: fully human IgG1, kappa
# B3: PR001358 (antibody, human IgG1, kappa, V domains shown)
# VH: B1 VH with E6Q, G33A, V50I, A51M, V56S, S57N, E58T, N74T, A75S, Y80F
# VL: B1 VL with N31S, S53N, E107D
# notes: fully human IgG1, kappa
# B4: PR001366 (antibody, V domains shown)
# VH: B1 VH with A23T, A51K, V56I, E58Q, D59N, Y60F, A75S, E99D, Q100L, L106I
# VL: B1 VL with V3Q, M4L, N31S, E107D
# notes: fully human IgG1, kappa
# B5: PR001352 (antibody, human IgG1, kappa, V domains shown)
# VH: B1 VH with Q1E, V5L, A51K, V56I, E58Q, D59N, Y60F, A75S, E99D, Q100L
# VL: B1 VL with V3Q, M4L, T10S, S28T, K92N
# notes: fully human IgG1, kappa
# B6: PR001361 (antibody, V domains shown)
# VH: B1 VH with E6Q, A23T, S31R, H35L, A75S, K76M, Y80S
# VL: B1 VL with V3Q, M4L, N31S, E107D
# notes: fully human IgG1, kappa
# B7: PR001367 (antibody, human IgG1, kappa, V domains shown)
# VH: B1 VH with T28S, G33A, K43R, A51I, V56G, S57D, A61I, N74D, A75S
# VL: B1 VL with I2V, S28T, K92N
# notes: fully human IgG1, kappa
# B8: PR001363 (antibody, human IgG1, kappa, V domains shown)
# VH: B1 VH with T28S, G33A, K43R, A51I, V56G, S57D, Y60S, A61I, N74D, A75S
# VL: B1 VL with I2V, S28T, K92N
# notes: fully human IgG1, kappa
# B9: PR001371 (antibody, human IgG1, kappa, V domains shown)
# VH: B1 VH with H35L, A75S, K76M, Y80S
# VL: B1 VL with V3Q, M4L, T10S, S28T, K92N
# notes: fully human IgG1, kappa
# B10: PR001368 (antibody, V domains shown)
# VH: B1 VH with S31T, A51I, V56S, S57D, E58T, N74T, A75S
# VL: B1 VL with N31S
# notes: fully human IgG1, kappa
# B11: PR001365 (antibody, human IgG1, kappa, V domains shown)
# VH: B1 VH with E6Q, A51I, V56S, S57D, E58K, N74T, A75S
# VL: B1 VL with V3Q, S9Y, T10S, S28T, S93L
# notes: fully human IgG1, kappa
# Biological target: T1, cynomolgus ROR1 (cynoROR1) on CHO-K1 cells (cynomolgus, UniProt A0A2K5WTX7 30-937)
# T1 construct: whole, on cells; also called CHO-K1-cynoROR1; CHO-K1-cyROR1
# Experiment: FACS, CHO-K1-cynoROR1 cells
# Method: (§1) The binding properties were characterized by FACS. The recombinant antibodies obtained above were serially diluted to 9 different concentrations and incubated for 1 h, and then determined for the binding ability with HEK293T-hROR1, CHO-K1-cynoROR1 and A549 cell lines (endogenously expressing ROR1), respectively. The secondary antibody was then incubated for 1 h. The results are shown in FIG. 4-6 and Table 7-2 below.
row,Binder,MAX(MFI)
1,B1,29700
2,B2,26000
3,B3,27300
4,B4,23300
5,B5,30700
6,B6,27200
7,B7,21200
8,B8,17200
9,B9,28400
10,B10,27800
11,B11,22100

# Biological target: T2, human ROR1 (hROR1) on cells (human, UniProt Q01973 30-937)
# T2 construct: whole, on cells; the cell line is named under assay; also called HEK293T-hROR1; 293T-hROR1
# Experiment: FACS, HEK293T-hROR1 cells
# Method: as §1
# T2 sequence (Q01973 30-937): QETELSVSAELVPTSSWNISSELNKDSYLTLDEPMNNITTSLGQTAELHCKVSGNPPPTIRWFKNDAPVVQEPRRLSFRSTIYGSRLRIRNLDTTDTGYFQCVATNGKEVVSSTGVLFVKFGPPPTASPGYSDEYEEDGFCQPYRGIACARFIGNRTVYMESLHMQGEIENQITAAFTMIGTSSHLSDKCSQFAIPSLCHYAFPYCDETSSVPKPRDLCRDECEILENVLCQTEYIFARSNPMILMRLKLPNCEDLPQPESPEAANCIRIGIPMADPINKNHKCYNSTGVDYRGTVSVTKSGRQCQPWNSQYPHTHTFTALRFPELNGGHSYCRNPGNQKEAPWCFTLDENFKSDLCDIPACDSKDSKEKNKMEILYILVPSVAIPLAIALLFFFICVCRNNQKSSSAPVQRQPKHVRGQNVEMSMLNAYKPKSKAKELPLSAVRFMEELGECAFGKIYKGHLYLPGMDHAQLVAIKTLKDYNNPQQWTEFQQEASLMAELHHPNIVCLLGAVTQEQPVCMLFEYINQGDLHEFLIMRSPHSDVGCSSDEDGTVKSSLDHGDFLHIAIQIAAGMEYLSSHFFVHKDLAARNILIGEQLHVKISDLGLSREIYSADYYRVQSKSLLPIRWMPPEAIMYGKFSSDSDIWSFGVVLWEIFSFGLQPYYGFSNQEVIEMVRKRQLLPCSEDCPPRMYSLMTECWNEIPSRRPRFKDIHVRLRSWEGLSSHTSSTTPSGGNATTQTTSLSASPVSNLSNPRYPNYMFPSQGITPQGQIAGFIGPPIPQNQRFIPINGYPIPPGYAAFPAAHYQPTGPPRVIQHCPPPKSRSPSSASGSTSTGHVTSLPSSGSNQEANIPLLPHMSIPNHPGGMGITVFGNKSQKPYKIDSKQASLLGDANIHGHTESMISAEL
row,Binder,fold lower EC50 than reference PR000374 [fold]
1,B1,10
2,B2,10
3,B3,10
4,B4,10
5,B5,10
6,B6,10
7,B7,10
8,B8,10
9,B9,10
10,B10,10
11,B11,10

# Biological target: T3, ROR1 (antigen of the KD determination and of the Octet dissociation measurement) (UniProt Q01973 30-403, limits assumed)
# Experiment: Octet, antigen form not stated
# T3 sequence (Q01973 30-403 limits assumed): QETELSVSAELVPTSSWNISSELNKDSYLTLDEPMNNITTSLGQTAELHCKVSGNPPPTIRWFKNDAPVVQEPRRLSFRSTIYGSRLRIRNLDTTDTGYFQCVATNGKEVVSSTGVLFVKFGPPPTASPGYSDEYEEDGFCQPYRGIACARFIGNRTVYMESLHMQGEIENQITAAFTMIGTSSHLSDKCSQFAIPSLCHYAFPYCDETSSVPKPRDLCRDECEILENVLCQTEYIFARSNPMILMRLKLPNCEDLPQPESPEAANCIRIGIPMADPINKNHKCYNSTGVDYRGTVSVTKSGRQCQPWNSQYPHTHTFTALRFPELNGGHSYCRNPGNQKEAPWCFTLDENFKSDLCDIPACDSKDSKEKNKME
Binder,Response,koff [s⁻¹]
B1,0.617,0.000152

# Biological target: T2, human ROR1 (hROR1) on cells
# Experiment: FACS, HEK293T-hROR1 cells
# Remark: another data set of the same source
row,Binder,MFI [MFI]
1,B1,50900

# Biological target: T2, human ROR1 (hROR1) on cells
# Experiment: FACS, Panc-1 cells
row,Binder,MFI [MFI]
1,B1,5590

# Biological target: T2, human ROR1 (hROR1) on cells
# Experiment: FACS, HEK293T-hROR1 cells; cytometer saturated
# Method: as §1
row,Binder,MAX(MFI)
1,B1,262000
2,B2,262000
3,B3,262000
4,B4,262000
5,B5,262000
6,B6,262000
7,B7,262000
8,B8,262000
9,B9,262000
10,B10,262000
11,B11,262000

# Biological target: T4, Human ROR1-ECD-his (human, UniProt Q01973 30-406)
# T4 construct: extracellular domain; bought, Acrobiosystems RO1-H522y; also called hROR1-ECD-his; hROR1 ECD-his
# Experiment: ELISA, plate coated with hROR1 ECD-his
# Method: (§2) Screening by ELISA assay: 96-well plates (Corning 9018) were coated with 1 μg/mL hROR1 ECD-his/hROR2 ECD-his/mROR1 ECD-his proteins prepared with PBS in Example 1a above and incubated at 4° C. overnight. The liquid was then discarded, and the plates were washed 3 times with PBST, blocked with 5% milk for 2 h at room temperature, and washed 3 times with PBST. The taken supernatant was added at 100 μL/well, and the plates were incubated at room temperature for 1 h, followed by washing 3 times with PBST. 100 μL/well of secondary antibody (Sigma, Cat#: A8592) was added, the plates were incubated at room temperature for 1 h, and then washed. TMB was then added to the plates at 100 μL/well and incubated for 15 min at room temperature. Thereafter, the reaction was terminated and data were read.
# (§3) a. Results of ELISA assay (the ELISA assay was performed according to the same procedures as in Example 2c, except that the added samples were recombinant antibodies and the secondary antibody was a-Fc (Genscript, Cat#: A01854))
# T4 sequence (Q01973 30-406): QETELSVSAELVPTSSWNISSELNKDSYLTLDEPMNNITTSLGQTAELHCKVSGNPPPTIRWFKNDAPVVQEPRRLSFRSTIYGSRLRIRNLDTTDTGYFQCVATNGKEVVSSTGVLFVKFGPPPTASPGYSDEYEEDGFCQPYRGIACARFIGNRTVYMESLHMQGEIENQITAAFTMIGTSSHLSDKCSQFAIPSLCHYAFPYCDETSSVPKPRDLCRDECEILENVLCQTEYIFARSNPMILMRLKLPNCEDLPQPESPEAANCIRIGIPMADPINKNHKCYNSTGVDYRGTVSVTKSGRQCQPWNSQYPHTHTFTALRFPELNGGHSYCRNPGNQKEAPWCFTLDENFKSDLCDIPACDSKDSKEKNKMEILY
row,Binder,ELISA signal (called MFI)
1,B1,2.38
2,B2,2.53
3,B3,2.47
4,B4,2.24
5,B5,2.48
6,B6,2.28
7,B7,2.38
8,B8,2.45
9,B9,2.38
10,B10,2.51
11,B11,2.35

# Biological target: T2, human ROR1 (hROR1) on cells
# Experiment: FACS, A549 cells
# Method: as §1
row,Binder,MAX(MFI)
1,B1,4630
2,B2,3920
3,B3,4970
4,B4,4750
5,B5,4520
6,B6,4520
7,B7,3450
8,B8,3700
9,B9,4110
10,B10,4210
11,B11,4400

# Biological target: T3, ROR1 (antigen of the KD determination …)
# Experiment: method not stated (conventional procedures)
Binder,Kd [nM],koff [s⁻¹],kon [M⁻¹ s⁻¹]
B1,0.81,0.000287,354000
B2,3.97,0.00113,285000
B3,1.07,0.000518,482000
B4,1.67,0.00075,448000
B5,1.51,0.000476,316000
B6,1.83,0.00108,590000
B7,3.06,0.00104,341000
B8,2.9,0.00101,348000
B9,1.76,0.000525,298000
B10,2.16,0.000867,402000
B11,0.237,7.72e-05,325000

# Biological target: T5, hROR2ECD-his (human, UniProt Q01974 34-403)
# T5 construct: extracellular domain; bought, Acrobiosystems R02-H52E5; also called huROR2-his
# Experiment: ELISA, plate coated with hROR2 ECD-his
# Method: as §2, §3
# T5 sequence (Q01974 34-403): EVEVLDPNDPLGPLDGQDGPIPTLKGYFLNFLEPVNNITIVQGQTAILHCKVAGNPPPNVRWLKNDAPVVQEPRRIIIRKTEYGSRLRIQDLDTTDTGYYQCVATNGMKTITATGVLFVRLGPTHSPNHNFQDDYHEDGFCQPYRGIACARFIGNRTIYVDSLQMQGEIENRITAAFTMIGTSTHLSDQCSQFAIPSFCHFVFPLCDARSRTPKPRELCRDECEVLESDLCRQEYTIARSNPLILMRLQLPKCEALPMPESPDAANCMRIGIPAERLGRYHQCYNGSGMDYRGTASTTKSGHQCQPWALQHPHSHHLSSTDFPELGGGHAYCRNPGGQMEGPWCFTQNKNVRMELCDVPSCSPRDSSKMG
row,Binder,ELISA signal (called MFI)
1,B1,0.0305
2,B2,0.0335
3,B3,0.049
4,B4,0.0305
5,B5,0.0335
6,B6,0.028
7,B7,0.0235
8,B8,0.0305
9,B9,0.0235
10,B10,0.0255
11,B11,0.0285

# Biological target: T5, hROR2ECD-his
# Experiment: ELISA, plate coated with hROR2 ECD-his
# Remark: another data set of the same source
# Method: as §2, §3
# The corresponding values in the table are the measured median fluorescence intensity (MFI).
row,Binder,binding result
1,B1,no binding
2,B2,no binding
3,B3,no binding
4,B4,no binding
5,B5,no binding
6,B6,no binding
7,B7,no binding
8,B8,no binding
9,B9,no binding
10,B10,no binding
11,B11,no binding
